Holding throughout (assay): purified protein
Settings in all cases: fatty acid varied 0-500 uM, 5 mM ATP, 0.5 mM CoA, 10 mM MgCl2, 1 mM NADH, pH 7.5, 30 C

Substrate in series [1]: CCCCCCCCCC(=O)O
Format: biochemical, Solanum lycopersicum.

Substrate in series [2]: CCCCCC(=O)O
Format: biochemical, Solanum lycopersicum.

Substrate in series [3]: CCCCCCC/C=C/C(=O)O
Format: biochemical, Solanum lycopersicum.

Substrate in series [4]: CCCCCCCCCCCC(=O)O
Format: biochemical, Solanum lycopersicum.

Substrate in series [5]: CC(C)CCCCCCC(=O)O
Format: biochemical, Solanum lycopersicum.

Substrate in series [6]: CCCCCCCC(=O)O

B1: Sl-AACS1 (Solanum lycopersicum) (protein)
chain: MNKFFKTSNIALRFFNGSVQLPAPTHRVRQLCQLAGSIESTDESRKLLEGVVTSPANYVPLTPISYLERAADVFGDRTSVVFGSSVKYTWEETHSRCLKLASALIQLGISRGDVVATLAPNVPAMQELHFAVPMAGAVLCTLNTRLDSSMVAYLLKHSETKMIFVDQQFLQIAQQALSLLSKDKTIKPPILILIPESNDSSPPVSNIHEYENLLSSGSSNFTIRWPKSEFDPISINYTSGTTSSPKGVVYNHRGAYLNSISAFLCHGMALMPTYLWTLPMFHCNGWCMNWGVAALGGTNVCLRHVSAKDIFESISVNKVTHMSAAPIVLSMMANASPNDRKPLLHKVEIMTGGSPPPPQILSKMEQLGFGVSHGYGLTETYSGATTCLWKPEWDSLPLEERAALKSRQGVKVLCIERVDVRDPETMENVPADGKSIGEIVCRGNTVMSGYLKDVKSTEEAFKGGWFHTGDVAVKHPDGYIEIKDRLKDIIISGGENISTLEVEGVLHSHPAVVEAAVVARPDDHWGQTPCAFVKLKEGSEEITSDEIIKYCRDHLPHYMVPRAVVFQDLPTTSTGKVQKFILREKAKALASLFNTDRKV
notes: full-length ORF in pET28b, His-tagged (tag removal not mentioned), E. coli BL21 Rosetta, Ni-NTA purified
In the case of B1, the Km (usually the concentration of substrate that gives half-maximal velocity) is 71.8 ± 9.6 µM in the series “purified protein [1]”; 214.8 ± 40 µM in “purified protein [2]”; 36.4 ± 4.5 µM in “purified protein [3]”; 68.1 ± 15.8 µM in “purified protein [4]”; 82.1 ± 10.3 µM in “purified protein [5]”; 145.9 ± 10.4 µM in “purified protein [6]”. In addition, the kcat – broadly, the number of substrate molecules converted per active site and unit of time at saturation – in the series “purified protein [1]” came out at 0.0933 ± 0.0033 s⁻¹; in “purified protein [2]”, 0.23 ± 0.02 s⁻¹; in “purified protein [3]”, 0.0983 ± 0.0033 s⁻¹; in the series “purified protein [4]”, 0.07 ± 0.005 s⁻¹; in “purified protein [5]” it was 0.227 ± 0.01 s⁻¹; in “purified protein [6]” it was 0.22 ± 0.0067 s⁻¹.

The values are drawn from PMC7386920, “Evolution of a plant gene cluster in Solanaceae and emergence of metabolic diversity” (eLife, 2020).
